In this test the test system is NCA, MA, CEA. The test can be described thus: Specificity for NCA, MA and CEA. Type of test: binding. An excerpt: In 1983, Primus et al. described the first panel of MAbs (NP-1, NP-2, NP-3, and NP-4) that defined NCA-cross-reactive, MA-cross-reactive, and CEA-specific epitopes on the CEA molecule (Primus et al., Cancer Res 1983, 43:686-92). […] The “ion-sensitive” determinant on CEA first was delineated by Hansen et al. (Clin Res 1971, 19:143) using unadsorbed anti-CEA polyclonal serum, and subsequently by Haskell et al. (Cancer Res 1983, 43:3857-64) with MAb. NP-2 and NP-3 react with MA and CEA but not with NCA, whereas NP-4 reacts only with CEA (Primus et al., 1983). […] The present Example describes the production and characterization of a second generation of anti-CEA antibodies, including the MN-15 Class I anti-CEA MAb.
The reagents, formulation, standards, and assay protocol of the sandwich EIA used in these studies have been described elsewhere (Hansen et al., Clin Chem 1989, 35:146-51). All assays were performed with microwells coated with NP-1, except in one experiment, in which microwells were coated with MN-15. […] After the second incubation, the amount of probe bound to CEA was determined by washing out the unbound probe, adding substrate (o-phenylenediamine/hydrogen peroxide), adding acid to stop the reaction, and quantitating the color product by reading the adsorbance at 490 nm. […]

B1: MN-15: murine Class I anti-CEA MAb, IgG1 kappa, binds A1B1 domain of CEACAM5 and CEACAM6 (antibody, V domains shown)
VL: DIQLTQSPAIMSASPGEKVTMTCSASSRVSYIHWYQQKSGTSPKRWIYGTSTLASGVPARFSGSGSGTSYSLTISSMEAEDAATYYCQQWSYNPPTFGAGTKLELKR
VH: EVRLVESGGGLVQGPGSLRLSCAASGFALTDYYMSWVRQSPGKTLEWLGFIANKANGHTTDYSPSVKGRFTISRDNSQTILYLQMNTLRTEDSATYYCARDMGIRWNFDVWGQGTTVTVSS
For the molecule B1, the “reactivity with NCA, MA and CEA” value is “reacted with normal cross-reactive antigen (NCA), MA, and CEA”.

(Values after patent US9371393B2, “Class I anti-CEA antibodies and uses thereof” (Immunomedics, Inc., priority 2009, dated 2016).)
